Experimental data published in US20250258165A1 (OSAKA UNIVERSITY, published 2025).

Biological target: T1, p300 (mouse, UniProt B2RWS6 2-2412)
T1 construct: whole, on cells; Endogenous protein inside fixed, permeabilised LPS-stimulated mouse spleen B cells; It was detected through a DNA barcode-labeled antibody (clone RW128)
Assay: joining PCR of DNA barcode-labeled antibodies in hydrogel with NGS; LPS-stimulated mouse spleen B cells
Experimental: B cells collected from mouse spleen were suspended in serum-free medium. The cells were seeded on each well of fluororesin-coated glass slides (super hydrophobic printed glass slides, 10 wells, 6 mm diameter, Matsunami Glass Ind., Ltd., Cat. No. TF1006, see FIG. 6) with an adjusted density of 5000 cells/30 μL per circle. The cells were cultured in 5% CO₂ at 37° C. for 30 minutes, and the culture supernatant was removed. […] The cells were cultured in 5% CO₂ at 37° C. for 24 hours. IL-4 was used as stimulation for B-cell activation.
The joining PCR of the antibody barcodes that come in close proximity was performed using Mastercycler nexus flat (trade-name) (Eppendorf) PCR cycler. […] The PCR reaction was performed through a program consisting of six steps: step 1: 95° C., 2 minutes; step 2: (95° C., 30 seconds and 68° C., 1 minute)×10 cycles; step 3: (95° C., 30 seconds, 55° C., 30 seconds and 68° C., 1 minute)×2 cycles; step 4: (95° C., 30 seconds, 60° C., 30 seconds and 68° C., 1 minute)×16 cycles; step 5: 68° C., 1 minute; and step 6: 4° C., infinity. The samples after completion of the PCR reaction were stored at −20° C.

T1 sequence (B2RWS6 2-2412): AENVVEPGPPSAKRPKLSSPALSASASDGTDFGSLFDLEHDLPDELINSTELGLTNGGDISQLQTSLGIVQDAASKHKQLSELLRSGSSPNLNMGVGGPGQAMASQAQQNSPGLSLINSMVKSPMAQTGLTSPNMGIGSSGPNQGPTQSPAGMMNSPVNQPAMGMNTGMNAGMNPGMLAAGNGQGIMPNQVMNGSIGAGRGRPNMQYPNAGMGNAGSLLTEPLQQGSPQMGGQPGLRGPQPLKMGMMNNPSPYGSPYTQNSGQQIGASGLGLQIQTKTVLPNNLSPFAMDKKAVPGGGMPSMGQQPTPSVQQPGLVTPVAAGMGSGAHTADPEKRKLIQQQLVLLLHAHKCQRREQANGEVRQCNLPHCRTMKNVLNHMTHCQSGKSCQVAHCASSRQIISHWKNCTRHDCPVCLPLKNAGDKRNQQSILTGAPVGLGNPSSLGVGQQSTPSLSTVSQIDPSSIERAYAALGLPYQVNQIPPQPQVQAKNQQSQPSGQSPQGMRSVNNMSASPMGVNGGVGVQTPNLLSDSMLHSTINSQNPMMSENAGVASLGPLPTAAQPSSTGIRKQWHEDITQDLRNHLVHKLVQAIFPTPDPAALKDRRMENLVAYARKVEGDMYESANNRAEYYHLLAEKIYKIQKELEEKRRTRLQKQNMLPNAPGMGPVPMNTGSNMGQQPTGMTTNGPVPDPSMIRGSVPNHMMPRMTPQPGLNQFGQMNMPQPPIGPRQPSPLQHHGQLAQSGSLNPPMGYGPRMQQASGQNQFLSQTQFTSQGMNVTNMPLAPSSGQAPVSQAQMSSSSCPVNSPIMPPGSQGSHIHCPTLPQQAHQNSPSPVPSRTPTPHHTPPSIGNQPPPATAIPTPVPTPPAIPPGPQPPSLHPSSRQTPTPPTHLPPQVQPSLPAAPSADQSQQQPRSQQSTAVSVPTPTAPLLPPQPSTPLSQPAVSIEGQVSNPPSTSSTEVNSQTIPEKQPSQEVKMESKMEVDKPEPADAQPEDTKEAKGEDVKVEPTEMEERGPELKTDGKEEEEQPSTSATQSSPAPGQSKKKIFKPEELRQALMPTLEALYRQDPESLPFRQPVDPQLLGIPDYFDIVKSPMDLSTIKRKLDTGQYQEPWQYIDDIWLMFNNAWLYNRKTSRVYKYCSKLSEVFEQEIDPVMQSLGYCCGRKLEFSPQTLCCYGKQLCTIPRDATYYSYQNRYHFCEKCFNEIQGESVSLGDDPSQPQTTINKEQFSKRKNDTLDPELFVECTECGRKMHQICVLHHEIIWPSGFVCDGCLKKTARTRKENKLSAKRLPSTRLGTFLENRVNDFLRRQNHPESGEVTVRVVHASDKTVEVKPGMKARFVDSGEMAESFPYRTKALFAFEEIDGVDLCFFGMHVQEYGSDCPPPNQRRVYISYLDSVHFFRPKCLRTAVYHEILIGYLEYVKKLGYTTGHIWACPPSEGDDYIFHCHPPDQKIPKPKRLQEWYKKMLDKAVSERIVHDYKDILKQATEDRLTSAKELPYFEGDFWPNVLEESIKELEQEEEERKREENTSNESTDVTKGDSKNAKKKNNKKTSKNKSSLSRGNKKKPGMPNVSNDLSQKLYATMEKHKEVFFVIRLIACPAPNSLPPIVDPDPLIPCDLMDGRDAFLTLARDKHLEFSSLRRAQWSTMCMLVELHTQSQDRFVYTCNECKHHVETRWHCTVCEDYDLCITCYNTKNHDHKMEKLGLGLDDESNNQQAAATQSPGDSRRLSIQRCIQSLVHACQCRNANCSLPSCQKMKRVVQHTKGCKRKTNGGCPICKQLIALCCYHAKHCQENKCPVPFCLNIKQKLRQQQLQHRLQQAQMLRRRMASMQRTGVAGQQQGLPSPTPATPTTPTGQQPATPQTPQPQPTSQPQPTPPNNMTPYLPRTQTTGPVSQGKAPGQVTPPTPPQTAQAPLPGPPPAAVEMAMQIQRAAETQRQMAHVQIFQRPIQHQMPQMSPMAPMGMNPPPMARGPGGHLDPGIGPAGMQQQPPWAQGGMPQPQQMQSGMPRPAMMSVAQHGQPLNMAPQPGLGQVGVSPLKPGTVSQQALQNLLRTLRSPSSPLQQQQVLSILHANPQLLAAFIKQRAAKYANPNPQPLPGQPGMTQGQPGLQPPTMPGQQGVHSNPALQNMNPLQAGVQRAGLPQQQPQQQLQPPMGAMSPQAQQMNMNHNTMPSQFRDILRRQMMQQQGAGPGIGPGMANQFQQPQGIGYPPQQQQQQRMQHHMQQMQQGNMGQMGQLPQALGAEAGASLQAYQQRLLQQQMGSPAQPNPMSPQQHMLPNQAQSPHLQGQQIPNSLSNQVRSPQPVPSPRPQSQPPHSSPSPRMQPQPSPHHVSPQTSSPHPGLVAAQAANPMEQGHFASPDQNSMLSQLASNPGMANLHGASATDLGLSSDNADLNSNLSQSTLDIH

binding result: binds
B1: Lamin B1 (other, mouse, UniProt P14733 2-585, looked up)
chain: ATATPVQQQRAGSRASAPATPLSPTRLSRLQEKEELRELNDRLAVYIDKVRSLETENSALQLQVTEREEVRGRELTGLKALYETELADARRALDDTARERAKLQIELGKFKAEHDQLLLNYAKKESDLSGAQIKLREYEAALNSKDAALATALGDKKSLEGDLEDLKDQIAQLEASLSAAKKQLADETLLKVDLENRCQSLTEDLEFRKNMYEEEINETRRKHETRLVEVDSGRQIEYEYKLAQALHEMREQHDAQVRLYKEELEQTYHAKLENARLSSEMNTSTVNSAREELMESRMRIESLSSQLSNLQKESRACLERIQELEDMLAKERDNSRRMLSDREREMAEIRDQMQQQLSDYEQLLDVKLALDMEISAYRKLLEGEEERLKLSPSPSSRVTVSRASSSRSVRTTRGKRKRVDVEESEASSSVSISHSASATGNVCIEEIDVDGKFIRLKNTSEQDQPMGGWEMIRKIGDTSVSYKYTSRYVLKAGQTVTVWAANAGVTASPPTDLIWKNQNSWGTGEDVKVILKNSQGEEVAQRSTVFKTTIPEEEEEEEEEPIGVAVEEERFHQQGAPRASNKSC
notes: whole, on cells; Endogenous protein inside fixed, permeabilised LPS-stimulated mouse spleen B cells; It was detected through a DNA barcode-labeled antibody (clone L-5)
